Experimental data as given in patent publication US20230357422A1 (published 2023).
One block for each binder: values may come before it.

Assays:
human 4-1BB on CHO cells = target: T1, human 4-1BB on CHO cells (human, UniProt Q07011 24-255); assay: flow cytometry on CHO cells expressing human 4-1BB
T1 construct: whole, on cells; also called CHO-h4-1BB cells; human 4-1BB CHO-S cells
Experimental: CHO cells overexpressing human 4-1BB (CHO-h4-1BB cells) were generated by transfection of pCHO1.0 vector (purchased from Invitrogen) encoding human 4-1BB cDNA cloned into MCS (multiple cloning site). The cell density of the expanded CHO-h4-1BB cells was adjusted to 2×10⁶ cells/ml, added at 100 μl/well to a 96-well flow plate, and centrifuged for later use. The purified 4-1BB antibody was diluted with PBS by 3-fold dilution starting from 400 nM for a total of 12 points. The above-mentioned diluted sample was added at 100 μl/well to the above-mentioned 96-well flow plate with cells, incubated at 4° C. for 30 min, and washed twice with PBS. Goat F(ab′)2 anti-human IgG-Fc (PE) (purchased from Abcam) diluted 100 times with PBS was added at 100 μl/well, incubated at 4° C. for 30 min, and washed twice with PBS. The cells resuspended with PBS was added at 100 μl/well, and detected on CytoFlex (Bechman) flow cytometer, and the corresponding MFI was calculated.

HZ-L-Yr-13&14-16-1 = assay: ELISA on coated his-tagged protein
Experimental: Human 4-1BB-his, GITR-his, OX40-his, CD40-his proteins (purchased from ACRO) were dissolved according to the instructions, diluted to 1 μg/ml with ELISA coating solution (purchased from Shanghai Sangon), coated on ELISA plate at 100 allowed to stand overnight at 4° C., and washed for 3 times with PBST, 5% BSA (purchased from Shanghai Sangon) was added at 200 μl/well to block for 1 hour at room temperature. The coating solution was discarded, 4-1BB antibody diluted with 1% BSA was added at 100 200 nM in three replicate wells, and incubated at room temperature for 2 hours. Washing was performed with PBST for 3 times, and goat anti-human IgG-Fc-HRP (purchased from abcam) diluted with 1% BSA was added at 100 μl/well, and incubated at room temperature for 1 hour. Washing was performed 3 times with PBST, ELISA chromogenic solution (purchased from Solarbio) was added at 100 μl/well to react at room temperature for 3 minutes, ELISA stop solution (purchased from Solarbio) was added at 50 and the absorbance value at 450 nm was read.

T1 sequence (Q07011 24-255): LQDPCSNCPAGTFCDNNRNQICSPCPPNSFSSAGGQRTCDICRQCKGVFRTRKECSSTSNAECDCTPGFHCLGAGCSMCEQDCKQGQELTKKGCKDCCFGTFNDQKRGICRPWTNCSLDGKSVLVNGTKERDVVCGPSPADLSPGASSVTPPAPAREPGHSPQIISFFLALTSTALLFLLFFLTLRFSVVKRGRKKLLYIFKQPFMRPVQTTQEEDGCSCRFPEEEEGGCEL

binding result (human 4-1BB on CHO cells): binds
B1: Hu-A-NA-19-2 (Fc fusion)
chain: EVQLVESGGGLVKPGGSLRLSCAASGAIFRINTGAWYRQAPGKGLELVASLTTYGKTTYADFVKGRFTISRDDSKNTLYLQMNSLKTEDTAVYYCHIGPEPRYGYWGQGTLVTVSSTHTCPPCPAPEAAGGPSVFLFPPKPKDTLMISRTPEVTCVVVDVSHEDPEVKFNWYVDGVEVHNAKTKPREEQYNSTYRVVSVLTVLHQDWLNGKEYKCKVSNKALPAPIEKTISKAKGQPREPQVYTLPPSREEMTKNQVSLTCLVKGFYPSDIAVEWESNGQPENNYKTTPPVLDSDGSFFLYSKLTVDKSRWQQGNVFSCSVMHEALHNHYTQKSLSLSPG
notes: also called HZ-A-Na-19-2

binding result (HZ-L-Yr-13&14-16-1): no binding (tested: 200 nM)
B2: GITR-his (receptor, human, UniProt Q9Y5U5 26-162, looked up)
chain: QRPTGGPGCGPGRLLLGTGTDARCCRVHTTRCCRDYPGEECCSEWDCMCVQPEFHCGDPCCTTCRHHPCPPGQGVQSQGKFSFGFQCIDCASGTFSGGHEGHCKPWTDCTQFGFLTVFPGNKTHNAVCVPGSPPAEP
notes: 'Human' heads the list '4-1BB-his, GITR-his, OX40-his, CD40-his' and is read as applying to all four; not shown: his tag

binding result (HZ-L-Yr-13&14-16-1): no binding (tested: 200 nM)
B3: OX40-his (receptor, human, UniProt P43489 29-216, looked up)
chain: LHCVGDTYPSNDRCCHECRPGNGMVSRCSRSQNTVCRPCGPGFYNDVVSSKPCKPCTWCNLRSGSERKQLCTATQDTVCRCRAGTQPLDSYKPGVDCAPCPPGHFSPGDNQACKPWTNCTLAGKHTLQPASNSSDAICEDRDPPATQPQETQGPPARPITVQPTEAWPRTSQGPSTRPVEVPGGRAVA
notes: 'Human' heads the list and is read as applying to all four proteins; not shown: his tag
